Experimental data as given in US20230192897A1 (NUMAB THERAPEUTICS, published 2023).
Blank lines part the entries; values can stand above or below the binder they belong to.

What was measured:
[1] = target: T1, biotinylated human PDL1 (human, UniProt Q9NZQ7 19-238, limits assumed, biotinylated); experiment: competition ELISA PD-1/PDL1
T1 construct: also called biotinylated PDL1

[2] = target: T2, Fc tagged human PDL1 (human, UniProt Q9NZQ7 19-239); experiment: SPR
T2 construct: Bought (Sino Biological, cat. 10084-H02H); captured on the SPR chip; also called PDL1-Fc chimeric protein
In short: (§1)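 Kinetics were fitted with a one-to-one Langmuir model to give apparent ka, kd and KD. Binders at 0.12-90 nM (three-fold series) flowed 3 min, with 10 min dissociation and 3 M MgCl₂ regeneration, on a Biacore T200.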

[3] = target: T3, Fc tagged human CD137 (human, UniProt Q07011 24-186); experiment: SPR
T3 construct: also called CD137-Fc chimeric protein
In short: as §1

[4] = target: T4, CD137 on Jurkat NFkB reporter cells (human, UniProt Q07011 24-255); experiment: cell-based or functional assay
[5] = target: T1, biotinylated human PDL1; experiment: competition ELISA B7.1/PDL1
In short: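 IC₅₀ was derived by four-parameter logistic fitting of reference-subtracted A450/690 readings. The signal came from streptavidin-polyHRP40 (10 ng/ml) with a 6-minute TMB reaction detecting biotinylated PDL1 bound to the plate. Pre-mixed samples sat 1 h at RT before a 1.5 h plate incubation.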

[6] = target: human PDL1 on cells (human, UniProt Q9NZQ7 19-290); experiment: cell-based or functional assay
[7] = target: T5, human serum albumin (human, UniProt P02768 25-609); experiment: SPR, SA coupled to chip, pH 5.5
T5 construct: Coupled directly to the CM5 chip; also called HSA; human SA
Description: (§2) Affinity of molecules to serum albumin (SA) of the different species was determined by SPR measurements using a Biacore T200 device (GE Healthcare). SA was directly coupled to a CM5 sensor chip (GE Healthcare) using amine coupling chemistry. […] The assay was run in a 1× PBS-Tween buffer at pH 5.5.

[8] = target: T6, mouse serum albumin (mouse, UniProt P07724 25-608); experiment: SPR, SA coupled to chip, pH 5.5
T6 construct: Coupled directly to the CM5 chip; also called MSA; mouse SA
Description: as §2

[9] = target: T4, CD137 on Jurkat NFkB reporter cells; experiment: cell-based or functional assay; remark: listed apart in the source
[10] = target: T1, biotinylated human PDL1; experiment: competition ELISA PD-1/PDL1 with HSA
Description: (§3) Plates were blocked for 1 hour at room temperature by adding 300 μl of PBS with i%BSA and 0.2% tween (dilution buffer) to each well. Inhibitors were serially diluted in 3-fold steps to final concentrations ranging from 300 to 0.005 ng/ml in dilution buffer containing 1 ng/ml biotinylated human PDL1. The mixtures were pre-incubated for 1 hour at room temperature under gentle agitation on a rotating mixer (21 rpm) and added to the microplates after 3 wash cycles with 450 μl wash buffer per well. Plates were incubated for 1.5 hours at room temperature under gentle agitation, then 10 ng/ml streptavidin-polyHRP40 was added to each microplate well after three washes with 450 μl of wash buffer per well. After 1 h incubation at RT, plates were washed three times with 450 μl wash buffer and TMB substrate solution was added. The enzymatic reaction was stopped after 6 minutes by addition of 1 M HCl and absorbance was measured at 450 nm using 690 nm as a reference wavelength. For calculation of IC₅₀ values, a four-parameter logistic (4PL) curve fit was performed in Graph Pad Prism using reference subtracted values.

[11] = target: T4, CD137 on Jurkat NFkB reporter cells; experiment: cell-based or functional assay; remark: listed apart in the source
[12] = target: cynomolgus CD137-Fc chimeric protein (cynomolgus monkey, UniProt A9YYE7 24-186); experiment: SPR
In short: as §1

[13] = target: T7, mouse CD137-Fc chimeric protein (mouse, UniProt P20334 24-187, limits assumed); experiment: SPR
T7 sequence (looked up): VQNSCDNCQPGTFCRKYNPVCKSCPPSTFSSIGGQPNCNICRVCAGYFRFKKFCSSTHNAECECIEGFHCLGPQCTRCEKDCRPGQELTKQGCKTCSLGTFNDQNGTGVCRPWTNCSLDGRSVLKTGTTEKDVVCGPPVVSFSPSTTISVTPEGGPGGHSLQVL
In short: as §1

[14] = target: T4, CD137 on Jurkat NFkB reporter cells; experiment: cell-based or functional assay; remark: listed apart in the source
[15] = target: T1, biotinylated human PDL1; experiment: PD-1/PDL1 competition ELISA with 1 mg/ml HSA: coated human PD-1, biotinylated human PDL1; blocked ligand: human PD-1
Description: as §3

- IC50 [1]: 0.00174 µg/mL
- rel. IC50 (IC50 avelumab/IC50 test) [1]: 1.26 fold
- Kd [2]: 0.0037 nM
- koff [2]: 2.3e-05 s⁻¹
- kon [2]: 6.2e+06 M⁻¹ s⁻¹
- Kd [3]: 2.6 nM
- koff [3]: 0.0005 s⁻¹
- IC50 (ng/ml), NFkB reporter, CHO-PD-L1, 24 h, +HSA [4]: 51 ng/mL
- IC50 (ng/ml), NFkB reporter, HCC827 + IFNg, 24 h, +HSA [4]: 16.7 ng/mL
- max. activation (%), NFkB reporter, CHO-PD-L1, 24 h, +HSA [4]: 152%
- rel. IC50 (urelumab/test), NFkB reporter, CHO-PD-L1, 24 h, +HSA [4]: 0.97 fold
- rel. IC50 (urelumab/test), NFkB reporter, HCC827 + IFNg, 24 h, +HSA [4]: 1.88 fold
- IC50 [5]: 0.00781 µg/mL
- rel. IC50 (IC50 avelumab/IC50 test) [5]: 1.58 fold
- IC50 (ng/ml), NF-AT potency assay, +HSA [6]: 10.2 ng/mL
- rel. IC50 (avelumab/test), +HSA [6]: 2.31 fold
- Kd [7]: 2.9 nM
- koff [7]: 0.00072 s⁻¹
- kon [7]: 250000 M⁻¹ s⁻¹
- kon [8]: 220000 M⁻¹ s⁻¹
B1: PRO1186 (other)
chain: DIQMTQSPSSLSASVGDRVTITCQASQSIGTYLAWYQQKPGKAPKLLIYRAFILASGVPSRFSGSGSGTDFTLTISSLQPEDFATYYCQSNFYSDSTTIGPNAFGTGTKVTVLGGGGGSQVQLQESGPGLVKPSETLSLTCKVSGFSFSNSYWICWIRQPPGKGLEWIGCTFVGSSDSTYYANWAKGRVTISVDSSKNQFSLKLSSVTAADTAVYYCARHPSDAVYGYANNLWGQGTLVTVSSGGGGSGGGGSGGGGSGGGGSDIQMTQSPSSLSASVGDRVTITCQASQSINNVLAWYQQKPGKAPKLLIYRASTLASGVPSRFSGSGSGTDFTLTISSLQPEDFATYYCQSSYGNYGDFGTGTKVTVLGGGGGSQVQLQESGPGLVKPSETLSLTCKVSGFSFNSDYWIYWIRQPPGKGLEWIGSIYGGSSGNTQYASWAQGRVTISVDSSKNQFSLKLSSVTAADTAVYYCARGYVDYGGATDLWGQGTLVTVSSGGGGSGGGGSVVMTQSPSSLSASVGDRVTITCQASQIISSRSAWYQQKPGQPPKLLIYQASKLASGVPSRFSGSGSGTDFTLTISSLQPEDFATYYCQCTYIDSNFGAFGGGTKLTVLGGGGGSGGGGSGGGGSGGGGSEVQLVESGGGLVQPGGSLRLSCAASGFSFSSSYWICWVRQAPGKGLEWVGCVFTGDGTTYYASWAKGRFTISRDNSKNTVYLQMNSLRAEDTATYFCARPVSVYYYGMDLWGQGTLVTVSS
notes: trispecific scDb-scFv; also called 38-02-A04 sc01 scDb-i/37-20-B03sc01 scDb-o/23-13-A01-sc03 scFv

- IC50 [1]: 0.00861 µg/mL
- rel. IC50 (IC50 avelumab/IC50 test) [1]: 0.2 fold
- EC50, NFkB reporter, HCC827 with IFNg, 24 h, +HSA [9]: 0.115 µg/mL
- EC50, NFkB reporter, HCC827 without IFNg, 24 h, +HSA [9]: 0.0766 µg/mL
- fold change of IC50 in presence of human serum albumin [10]: ~2 fold
- EC50, NFkB reporter, CHO-PDL1, 6 h, +HSA [11]: 0.112 µg/mL
- Kd [2]: 0.11 nM
- koff [2]: 0.00017 s⁻¹
- Kd [3]: 5.15 nM
- koff [3]: 0.0007 s⁻¹
- kon [3]: 240000 M⁻¹ s⁻¹
- Kd [12]: 4.8 nM
- Kd [13]: 1200 nM
- EC50, NFkB reporter, CHO-PDL1, 24 h, +HSA [14]: 0.792 µg/mL
- IC50 (ng/ml), NFkB reporter, CHO-PD-L1, 24 h, +HSA [4]: 792 ng/mL
- IC50 (ng/ml), NFkB reporter, HCC827 + IFNg, 24 h, +HSA [4]: 115 ng/mL
- IC50 (ng/ml), NFkB reporter, HCC827 - IFNg, 24 h, +HSA [4]: 76.6 ng/mL
- max. activation (%), NFkB reporter, CHO-PD-L1, 24 h, +HSA [4]: 663%
- rel. IC50 (urelumab/test), NFkB reporter, CHO-PD-L1, 24 h, +HSA [4]: 0.1 fold
- rel. IC50 (urelumab/test), NFkB reporter, HCC827 + IFNg, 24 h, +HSA [4]: 0.46 fold
- rel. IC50 (urelumab/test), NFkB reporter, HCC827 - IFNg, 24 h, +HSA [4]: 0.62 fold
- IC50 [5]: 0.0163 µg/mL
- rel. IC50 (IC50 avelumab/IC50 test) [5]: 0.53 fold
- IC50 (read off the curve) [15]: ~0.02 µg/mL
- IC50 (ng/ml), NF-AT potency assay, +HSA [6]: 665 ng/mL
- rel. IC50 (avelumab/test), +HSA [6]: 0.1 fold
- koff [7]: 0.00067 s⁻¹
- kon [7]: 240000 M⁻¹ s⁻¹
- kon [8]: 130000 M⁻¹ s⁻¹
B2: PRO1057 (other)
chain: DIQMTQSPSSLSASVGDRVTITCQASQSINDYLAWYQQKPGKAPKLLIYKASTLASGVPSRFSGSGSGTDFTLTISSLQPEDFATYYCQQGYIITDIDNVFGTGTKVTVLGGGGGSQVQLQESGPGLVKPSETLSLTCKVSGFSFSNSYWICWIRQPPGKGLEWIGCTFVGSSDSTYYANWAKGRVTISVDSSKNQFSLKLSSVTAADTAVYYCARHPSDAVYGYANNLWGQGTLVTVSSGGGGSGGGGSGGGGSGGGGSIQMTQSPSSLSASVGDRVTITCQASQSINNVLAWYQQKPGKAPKLLIYRASTLASGVPSRFSGSGSGTDFTLTISSLQPEDFATYYCQSSYGNYGDFGTGTKVTVLGGGGGSQVQLQESGPGLVKPSETLSLTCKVSGFSFSSGYDMCWIRQPPGKGLEWIGCVVAGSVDITYYASWAKGRVTISVDSSKNQFSLKLSSVTAADTAVYYCARKDAYSDAFNLWGQGTLVTVSSGGGGSGGGGSVVMTQSPSSLSASVGDRVTITCQASQIISSRSAWYQQKPGQPPKLLIYQASKLASGVPSRFSGSGSGTDFTLTISSLQPEDFATYYCQCTYIDSNFGAFGGGTKLTVLGGGGGSGGGGSGGGGSGGGGSEVQLVESGGGLVQPGGSLRLSCAASGFSFSSSYWICWVRQAPGKGLEWVGCVFTGDGTTYYASWAKGRFTISRDNSKNTVYLQMNSLRAEDTATYFCARPVSVYYYGMDLWGQGTLVTVSS
notes: trispecific scDb-scFv; also called 38-02-A04 sc01 scDb-i/33-03-G02 sc01 scDb-o/23-12-A01-sc03, sk17sh4
